The target of the experiment is T1, CLDN18.2 (UniProt P56856 1-261).
T1 chain: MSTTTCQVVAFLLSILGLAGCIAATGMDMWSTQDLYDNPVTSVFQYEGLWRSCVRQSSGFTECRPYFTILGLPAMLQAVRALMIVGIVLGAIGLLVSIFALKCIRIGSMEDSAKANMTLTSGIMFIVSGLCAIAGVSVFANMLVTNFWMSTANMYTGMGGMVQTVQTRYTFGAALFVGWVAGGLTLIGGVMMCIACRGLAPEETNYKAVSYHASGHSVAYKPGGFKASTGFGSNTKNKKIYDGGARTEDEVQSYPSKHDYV
In words: FACS binding, MC38/CD47/CLDN18.2 cells. In general terms: A flow cytometer gives signals particle by particle.

B1: hu28 (antibody, V domains shown)
VH: QVQLVQSGAEVKKPGASVKVSCKASGYTFTNWVHWVRQAPGQGLEWMGEINPTNARSNYNEKFKKRVTMTRDTSTSTVYMELSSLRSEDTAVYYCARIYYGNSFAHWGQGTLVTVSS
VL: DIVMTQSPDSLAVSLGERATINCKSSQSLLNAGNQKNYLTWYQQKPGQPPKLLIYWSSTRESGVPDRFSGSGSGTDFTLTISSLQAEDVAVYHCQNNYYYPLTFGGGTKLEIKR
For orientation: EC50 means the concentration giving half of the maximal effect. In turn, B1 showed a concentration for a half-maximal effect (EC50) of 3.24 nM.
